Measured values published in PMC5376981 (Scientific Reports, 2014).

Experiments:
[1] = target: full-length VAR2CSA recombinant protein (3D7-DBL1X-6ε) (Plasmodium falciparum 3D7, UniProt Q8I639, strain); assay: SPR
[2] = target: 3D7-DBL5ε (Plasmodium falciparum 3D7, UniProt Q8I639, strain); assay: ELISA
[3] = target: FCR3-DBL3X-4ε (Plasmodium falciparum FCR3, UniProt Q6UDW7, strain); assay: ELISA
[4] = target: 3D7-DBL6ε (Plasmodium falciparum 3D7, UniProt Q8I639, strain); assay: ELISA
[5] = target: FCR3-DBL6ε (Plasmodium falciparum FCR3, UniProt Q6UDW7, strain); assay: ELISA

B1: VHH861 (VHH)
VHH: QVQLQESGGGLVQAGGSLRLSCAFSGSIFKMGWYRQAPGKERELVATITHIGVTDYAEFVKGRFTISRDNAKNTVYLLMNSLKPEDTAVYYCNVASRWPDYWGQGTQVTVSS
[1]
  Kd: 35 nM
  koff: 0.001 s⁻¹
  kon: 29000 M⁻¹ s⁻¹
[2]
  binding result: no binding (tested: 0.3 µg/ml)
[3]
  binding result: binds
[4]
  binding result: no binding (tested: 0.3 µg/ml)
[5]
  binding result: no binding (tested: 0.3 µg/ml)
